# Values of other authors as cited in PMC2883863.
# Biological target: Cys36 (UniProt position 73, FWTPWCPFCNA)
# Conditions: not stated (quoted literature value for Mtb DsbE)
substance,measurement,value
"Disulfide bond forming protein DsbE (Mtb DsbE, Rv2878c, MPT53) (Mycobacterium tuberculosis)",pKa,5.35 ± 0.2
